Measured values reported in article PMC7803729 (Nature Communications, 2021).

Target: SARS-CoV-2 S protein RBD (Arg319-Asn536) with a polyhistidine tag at the C-terminus, manufactured by Celltrion (SARS-CoV-2, Wuhan-Hu-1 (YP_009724390.1), UniProt P0DTC2)
Experiment: SPR
Conditions: both partners purified

B1: CT-P59 monoclonal antibody, full-length fully human IgG (antibody, V domains shown)
VH: QITLKESGPTLVKPTQTLTLTCSFSGFSLSTSGVGVGWIRQPPGKALEWLALIDWDDNKYHTTSLKTRLTISKDTSKNQVVLTMTNMDPVDTATYYCARIPGFLRYRNRYYYYGMDVWGQGTTVTVSS
VL: ELVLTQPPSVSAAPGQKVTISCSGSSSNIGNNYVSWYQQLPGTAPKLLIYDNNKRPSGIPDRFSGSKSGTSATLGITGLQTGDEADYYCGTWDSSLSAGVFGGGTELTVL
With B1 as the binder, how does the Kd read?
Its Kd is 0.027 nM.
